Assay results published in patent US20220204613A1 (D 10 THERAPEUTICS, published 2022).

Biological target: T1, human CD47 protein (human, UniProt Q08722 19-139, limits assumed)
T1 construct: also called human CD47 antigen
Experiment: SPR Biacore, supernatant antibody Fc-captured, human CD47 analyte 5 nM
Experimental: Production and affinity ranking of humanized antibodies. The designed plasmids of heavy chain and light chain were sent for 3 mL transfection following GenScript's SOP. For affinity ranking, Antibodies were captured on the sensor chip through Fc capture method. Human CD47 protein was used as the analyte. The surface was regenerated before the injection of another antibody. The process was repeated until all antibodies were analyzed. The off-rates of antibodies were obtained from fitting the experimental data locally to 1:1 interaction model using the Biacore® T200/8K evaluation software. The antibodies were ranked by their dissociation rate constants (off-rates, kd).

T1 sequence (Q08722 19-139 limits assumed): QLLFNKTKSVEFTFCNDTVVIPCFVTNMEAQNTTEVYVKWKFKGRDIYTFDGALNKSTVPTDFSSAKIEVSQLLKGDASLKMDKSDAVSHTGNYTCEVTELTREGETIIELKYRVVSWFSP

Binder | Kd | koff | kon
VH3+VL2 (antibody, human IgG4 S228P, kappa, V domains shown, Humanized IgG, hIgG4 CH (S228P) and human kappa CL; leader residues 1-19 of each entry left out; Tested from supernatant; also called U0959FD090-VH3 + U0959FD090-VL2) VH: QVQLVQSGAEVKKPGASVKVSCKASGYTFTSSVIHWVKQAPGQGLEWLGYINPYSDGTKFNEKCKIRVTLTSDTSISTAYMELSRLRSDDTAVYYCARGLIGTRYDSWFAYWGQGTLVTVSS VL: DIQMTQSPSSLSASVGDRVTITCRTSQDINNYLNWYQQKPGKAVKLLIYYTSRLHSGVPSRFSGSGSGTDFTFTISSLQPEDIATYFCQQGNTLPYTFGGGTKVEIKR | 638 pM | 0.00378 s⁻¹ | 5.93e+06 M⁻¹ s⁻¹
VH4+VL3 (antibody, human IgG4 S228P, kappa, V domains shown, Humanized IgG, hIgG4 CH (S228P) and human kappa CL; leader residues 1-19 of each entry left out; Tested from supernatant; also called U0959FD090-VH4 + U0959FD090-VL3) VH: QVQLVQSGAEVKKPGASVKVSCKASGYTFTSSVIHWVKQAPGQGLEWLGYINPYSDGTKFNEKCKIRATMTSDKSISTAYMELSRLRSDDTAVYYCARGLIGTRYDSWFAYWGQGTLVTVSS VL: DIQMTQSPSSLSASVGDRVTITCRTSQDINNYLNWYQQKPGKAVKLLIYYTSRLHSGVPSRFSGSGSGTDYTFTISSLQPEDIATYFCQQGNTLPYTFGGGTKVEIKR | 591 pM | 0.00287 s⁻¹ | 4.85e+06 M⁻¹ s⁻¹
VH1+VL1 (antibody, human IgG4 S228P, kappa, V domains shown, Humanized IgG, hIgG4 CH (S228P) and human kappa CL; Tested from supernatant; also called U0959FD090-VH1 + U0959FD090-VL1) VH: QVQLVQSGAEVKKPGASVKVSCKASGYTFTSSVIHWVRQAPGQGLEWMGYINPYSDGTKFNEKCKIRVTMTRDTSISTAYMELSRLRSDDTAVYYCARGLIGTRYDSWFAYWGQGTLVTVSS VL: DIQMTQSPSSLSASVGDRVTITCRTSQDINNYLNWYQQKPGKAPKLLIYYTSRLHSGVPSRFSGSGSGTDFTFTISSLQPEDIATYYCQQGNTLPYTFGGGTKVEIKR | 412 pM | 0.0021 s⁻¹ | 5.1e+06 M⁻¹ s⁻¹
VH2+VL1 (antibody, human IgG4 S228P, kappa, V domains shown, Humanized IgG, hIgG4 CH (S228P) and human kappa CL; leader residues 1-19 of each entry left out; Tested from supernatant; also called U0959FD090-VH2 + U0959FD090-VL1) VH: QVQLVQSGAEVKKPGASVKVSCKASGYTFTSSVIHWVRQAPGQGLEWLGYINPYSDGTKFNEKCKIRATMTSDTSISTAYMELSRLRSDDTAVYYCARGLIGTRYDSWFAYWGQGTLVTVSS VL: DIQMTQSPSSLSASVGDRVTITCRTSQDINNYLNWYQQKPGKAPKLLIYYTSRLHSGVPSRFSGSGSGTDFTFTISSLQPEDIATYYCQQGNTLPYTFGGGTKVEIKR | 1000 pM | 0.00648 s⁻¹ | 6.47e+06 M⁻¹ s⁻¹
VH1+VL3 (antibody, human IgG4 S228P, kappa, V domains shown, Humanized IgG, hIgG4 CH (S228P) and human kappa CL; leader residues 1-19 of each entry left out; Tested from supernatant; also called U0959FD090-VH1 + U0959FD090-VL3) VH: QVQLVQSGAEVKKPGASVKVSCKASGYTFTSSVIHWVRQAPGQGLEWMGYINPYSDGTKFNEKCKIRVTMTRDTSISTAYMELSRLRSDDTAVYYCARGLIGTRYDSWFAYWGQGTLVTVSS VL: DIQMTQSPSSLSASVGDRVTITCRTSQDINNYLNWYQQKPGKAVKLLIYYTSRLHSGVPSRFSGSGSGTDYTFTISSLQPEDIATYFCQQGNTLPYTFGGGTKVEIKR | 274 pM | 0.00137 s⁻¹ | 5e+06 M⁻¹ s⁻¹
VH4+VL4 (antibody, human IgG4 S228P, kappa, V domains shown, Humanized IgG, hIgG4 CH (S228P) and human kappa CL; leader residues 1-19 of each entry left out; Tested from supernatant; also called U0959FD090-VH4 + U0959FD090-VL4) VH: QVQLVQSGAEVKKPGASVKVSCKASGYTFTSSVIHWVKQAPGQGLEWLGYINPYSDGTKFNEKCKIRATMTSDKSISTAYMELSRLRSDDTAVYYCARGLIGTRYDSWFAYWGQGTLVTVSS VL: DIQMTQSPSSLSASVGDRVTISCRTSQDINNYLNWYQQKPGKTVKLLIYYTSRLHSGVPSRFSGSGSGTDYTFTISSLQPEDIATYFCQQGNTLPYTFGGGTKVEIKR | 553 pM | 0.00278 s⁻¹ | 5.02e+06 M⁻¹ s⁻¹
VH1+VL4 (antibody, human IgG4 S228P, kappa, V domains shown, Humanized IgG, hIgG4 CH (S228P) and human kappa CL; leader residues 1-19 of each entry left out; Tested from supernatant; also called U0959FD090-VH1 + U0959FD090-VL4) VH: QVQLVQSGAEVKKPGASVKVSCKASGYTFTSSVIHWVRQAPGQGLEWMGYINPYSDGTKFNEKCKIRVTMTRDTSISTAYMELSRLRSDDTAVYYCARGLIGTRYDSWFAYWGQGTLVTVSS VL: DIQMTQSPSSLSASVGDRVTISCRTSQDINNYLNWYQQKPGKTVKLLIYYTSRLHSGVPSRFSGSGSGTDYTFTISSLQPEDIATYFCQQGNTLPYTFGGGTKVEIKR | 266 pM | 0.00128 s⁻¹ | 4.8e+06 M⁻¹ s⁻¹
chimeric-VH-PTM1+VL-1 (antibody, human IgG4 S228P, V domains shown, Heavy chain with hIgG4 CH (S228P); Light chain: mouse VL-1 with a human constant region; Tested from supernatant; also called U0959FD090-chimeric-VH-PTM1 with 32G8H6 VL-1) VH: EVQLQQSGPELVKPGASVKLSCKASGYTFTSSVIHWVKQKPGQGLEWLGYINPYSEGTKFNEKSKIKATLTSDKSSSTAYMELSSLTSEDSAVYYCARGLIGTRYDSWFAYWGQGTLVTVSA VL: DIQMTQNGSSLSASLGDRVTISCRTSQDINNYLNWYQQKQDGTVKLLIYYTSRLHSGVPSRFSGSGSGTDYSLTIRNLEQEDIATYFCQQGNTLPYTFGGGTKLEIK | 292 pM | 0.00215 s⁻¹ | 7.36e+06 M⁻¹ s⁻¹
chimeric-VH-PTM2+VL-1 (antibody, human IgG4 S228P, V domains shown, Heavy chain with hIgG4 CH (S228P); Light chain: mouse VL-1 with a human constant region; Tested from supernatant; also called U0959FD090-chimeric-VH-PTM2 with 32G8H6 VL-1) VH: EVQLQQSGPELVKPGASVKLSCKASGYTFTSSVIHWVKQKPGQGLEWLGYINPYSDATKFNEKSKIKATLTSDKSSSTAYMELSSLTSEDSAVYYCARGLIGTRYDSWFAYWGQGTLVTVSA VL: DIQMTQNGSSLSASLGDRVTISCRTSQDINNYLNWYQQKQDGTVKLLIYYTSRLHSGVPSRFSGSGSGTDYSLTIRNLEQEDIATYFCQQGNTLPYTFGGGTKLEIK | 488 pM | 0.00442 s⁻¹ | 9.06e+06 M⁻¹ s⁻¹
